The values below come from US8435786.

For this test, the target named is Fas receptor (CD95) on mouse bone marrow cells (mouse) (UniProt P25446). As to the kind of experiment: cell-based or functional assay.
Fas receptor (CD95) on mouse bone marrow cells (mouse), sequence (P25446 22-327): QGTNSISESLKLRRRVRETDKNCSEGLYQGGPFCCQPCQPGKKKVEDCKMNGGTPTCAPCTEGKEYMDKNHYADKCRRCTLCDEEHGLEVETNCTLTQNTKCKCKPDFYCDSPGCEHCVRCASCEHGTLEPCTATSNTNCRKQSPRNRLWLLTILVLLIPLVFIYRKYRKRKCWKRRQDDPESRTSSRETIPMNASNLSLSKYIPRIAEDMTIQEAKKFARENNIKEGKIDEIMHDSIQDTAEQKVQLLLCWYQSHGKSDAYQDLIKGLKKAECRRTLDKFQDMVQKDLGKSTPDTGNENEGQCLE

streptavidin-FasL chimeric protein, sequence (P22629 37-163, change not shown): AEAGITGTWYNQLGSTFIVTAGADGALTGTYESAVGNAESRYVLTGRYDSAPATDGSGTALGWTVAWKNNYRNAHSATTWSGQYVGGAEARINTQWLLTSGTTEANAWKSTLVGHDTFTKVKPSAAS

“streptavidin-FasL chimeric protein (from UniProt P22629 37-163) (ligand)” yielded an apoptotic death of wBMC after 24 hours with FasL protein (annexin-V, 7AAD) (% of the cells) of 40; a clonogenic activity of STR cells at 500 ng/ml FasL protein of 26 % increase; a clonogenic activity of STR cells with FasL and inhibition of caspase-3 (DEVD) of 75 % increase; a clonogenic activity of lin- BMC (CFU assay) (% stimulation at ~500 ng/ml FasL) of 45.
